{"source": "IntAct's records for PubMed 23010927", "parents": {"B1": {"name": "Multidrug efflux pump accessory protein AcrZ (Escherichia coli (strain K12)), P0AAW9 (parent)", "chain": "MLELLKSLVFAVIMVPVVMAIILGLIYGLGEVFNIFSGVGKKDQPGQNH", "partner": "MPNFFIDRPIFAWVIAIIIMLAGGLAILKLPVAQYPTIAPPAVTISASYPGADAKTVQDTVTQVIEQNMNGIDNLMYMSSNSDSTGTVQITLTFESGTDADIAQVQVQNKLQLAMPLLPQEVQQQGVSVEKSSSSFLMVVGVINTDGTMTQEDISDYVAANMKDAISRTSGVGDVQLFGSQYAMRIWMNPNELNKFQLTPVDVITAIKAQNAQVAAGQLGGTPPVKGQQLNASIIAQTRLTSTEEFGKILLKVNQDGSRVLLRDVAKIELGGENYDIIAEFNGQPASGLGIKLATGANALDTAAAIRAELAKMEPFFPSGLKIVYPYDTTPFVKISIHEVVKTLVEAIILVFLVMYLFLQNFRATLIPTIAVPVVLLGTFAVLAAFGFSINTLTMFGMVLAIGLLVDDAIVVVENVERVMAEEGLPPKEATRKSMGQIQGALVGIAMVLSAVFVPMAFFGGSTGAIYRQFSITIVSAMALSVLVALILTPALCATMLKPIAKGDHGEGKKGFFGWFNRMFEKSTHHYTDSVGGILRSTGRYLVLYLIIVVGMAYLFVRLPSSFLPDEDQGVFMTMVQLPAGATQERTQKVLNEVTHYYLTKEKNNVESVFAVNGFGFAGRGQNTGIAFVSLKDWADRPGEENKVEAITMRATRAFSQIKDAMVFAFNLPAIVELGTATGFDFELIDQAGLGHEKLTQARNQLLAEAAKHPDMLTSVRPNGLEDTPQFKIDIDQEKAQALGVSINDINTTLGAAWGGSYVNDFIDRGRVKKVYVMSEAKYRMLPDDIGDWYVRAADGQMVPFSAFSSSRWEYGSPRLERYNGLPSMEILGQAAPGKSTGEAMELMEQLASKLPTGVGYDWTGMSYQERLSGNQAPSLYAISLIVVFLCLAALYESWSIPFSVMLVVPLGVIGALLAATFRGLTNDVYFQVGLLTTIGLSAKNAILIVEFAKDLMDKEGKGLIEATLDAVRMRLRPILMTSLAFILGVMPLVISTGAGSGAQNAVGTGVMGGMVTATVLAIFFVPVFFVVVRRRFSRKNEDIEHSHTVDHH"}}}
{"variants_of": "B1", "settings": "with acrb_ecoli acrB"}
{"variant": "MLELLKSLVFAVIMVPVVMAIILGLIYGLREVFNIFSGVGKKDQPGQNH", "effect of a mutation on the interaction": "disrupting interaction"}
